According to US20110293610A1 (published 2011):

What follows are binders tested against T1, biotinylated B Lymphocyte Stimulator, soluble form (human, UniProt Q9Y275 134-285, biotinylated with NHS-biotin, molar ratio 20:1 biotin:protein) (assay: phage scFv, receptor binding inhibition on IM9 cells).
T1 construct: also called bio-B Lymphocyte Stimulator; free B Lymphocyte Stimulator
Description: Fifty-five μl of each appropriate phage supernatant was added to each well and the final volume in each well was 65 μl. Plates were then incubated at room temperature for 30 minutes.
Plates were washed three times in PBST and three times in PBS, tapped dry and 50 μl of streptavidin-Delfia (Wallac) was added to each well at 1:1000 dilution in the Manufacturer's assay buffer. The plates were then incubated at room temperature for 1 hour and washed six times in Delfia wash solution (Wallac). After tapping the plates dry, 100 μl per well of Delfia enhancement solution (Wallac) was added. The plates were gently tapped to encourage micelle formation, incubated at room temperature for 10 minutes, and fluorescence read on a Wallac 1420 workstation at […].

| Binder | binding result |
| --- | --- |
| I050B11 (scFv) scFv: QVQLVQSGVEVKKPGASVKVSCKASGYTFSNHGISWVRQAPGQGLEWVGWISGHDDSTKYAQKFQGRVTMTADTSTSTAYIELRSLKSDDTAVYYCARPFYDTLTSYVFQYFDHWGQGTMVTVSSGGGGSGGGGSGGGGSALETTLTQSPDTLSLSPGERATLSCRASQSVTRGWVAWYQQKPGQAPRLLMYGTSRRATGVPDRFSGSESGTDFTLTISRLEPEDFAVYYCQQYATSPRTFGQGTRLEIKR | binds |
| I031G08 (scFv) scFv: QVQLVQSGAEVKKPGSSVKVSCRASGGSFIDDSINWLRQAPGQGLEWVGGTIPLANRANYAQKFRDRATITADELTATVFLELTSLRSDDTALYYCARSSPPKWYDALTGHSSYHSAMDVWGRGTLVTVSSGGGGSGGGGSGGGGSAQSVLTQPPSASGTPGQRVTISCSGTNSNIGGNTVNWYQQLPGTAPRLLIYSNNQRPSGVPDRFSGSKSGTSASLAISGLQSEDEADYYCAARDDRLNAHVVFGGGTKVTVLG | binds |
| I008A09 (scFv) scFv: GVQLVQSGGGVVQPGGSLRLSCAASGFTFSSYGMHWVRQAPGKGLEWVAVISYDGSNKYYADSVKGRFTISRDNSKNTLYLQMNSLRAEDTAVYYCARDREAYYDILTGYYLYYYYMDVWGRGTTVTVSSGGGGSGGGGSGGGGSQSVLTQPASVSGSPGQSITISCTGTSSDVGGYNYVSWYQQHPGKAPKLMIYEGSKRPSGVSNRFSGSKSGNTASLTISGLQAEDEADYYCSSYTTGSTRVFGGGTKLTVLG | binds |
| I037E07 (scFv) scFv: QVQLVQSGAEVKKPGASVKVSCKASGYTFTNYGITWVRQAPGQGLEWMGWISAYNGNRNYAQKLQGRVTMTTDTSTSTAYMELRSLRSDDTAVYYCVRDGIDILLVPAALMDVWGRGTMVTVSSGGGGSGGGGSGGGGSQSVLTQPASVSGSPGQSITISCTGTSSDVGGYNYVSWYQQHPGKAPKLMIYEGSKRPSGVSNRFSGSKSGNTASLTISGLQAEDEADYYCSSYTTRSTRVFGGGTKLTVLG | binds |
| I037E12 (scFv) scFv: EVQLVQSGAEVKKPGASVKVSCKASGYTFTNYGITWVRQAPGQGLEWMGWISAYNGNRNYAQKLQGRVTMTTDTSTSTAYMELRSLRSDDTAVYYCVRDGIDILLVPAALMDVWGKGTLVTVSSGGGGSGGGGSGGGGSQSVLTQPASVSGSPGQSITISCTGTSSDVGGYNYVSWYQQHPGKAPKLMIYEGNKRPSGVSNRFSGSKSGNTASLTISGLQAEDEADYYCSSYTTRSTRVFGGGTKLTVLG | binds |
| I007B03 (scFv) scFv: GVQLQQSGAEVKKPGSSVKVSCKASGGTFNTSGITWVRQAPGQGLEWMGWMNPNTGDTAYAQEFQGRVIMTRDTSISTAYMELSSLRSEDTAVYYCARDGSYDILTGYYIDNYMDVWGQGTMVTVSSGGGGSGGGGSGGGGSQSVLTQPASVSGSPGQSITISCTGTSSDVGGYNYVSWYQQHPGKAPKLMIYEGSKRPSGVSNRFSGSKSGNTASLTISGLQAEDEADYYCSSYTTRSTRVFGGGTKLTVLG | binds |
| I031G10 (scFv) scFv: QVQLVQSGAEVKKPGSSVKVSCRVSGGSFTDDSINWLRQAPGQGLEWVGGTIPLANRANYAQKFRDRVTITADELTATVFLELTSLRSDDTALYYCARSSPPKWYDALTGDSSYHSAMDVWGRGTLVTVSSGGGGSGGGGSGGGGSAQSVVTQPPSVSAAPGQKVTISCSGSTSNIGRNYVSWYQQLPGTATKLLIYDNNKRPSGIPDRFSGSKSGTSATLGITGLQTGDEADYYCGTWDSSLRIYVFGTGTKVTVLG | binds |
| I050A12 (scFv) scFv: EVQLVQSGAEVKKPGSSVKVSCKASGDTFSHYAINWVRQAPGQGLEWMGGIIPTFNAVKYAQKFQGRATITADGSTSTAYMELNSLRSEDTAVYYCATAPYDLLTHYFHYFDYWGQGTMVTVSSGGGGSGGGGSGGGGSALSSELTQDPAVSVTLGQTVRITCQGDSLRSYYPSWYQQKPGQAPVLVIYPKNIRPSGIPDRFSGSSSGNTASLTITGAQAEDEADYYCNSRASSGNHYVFATGTKLTVLG | binds |
| I001C09 (scFv) scFv: GVQLVQSGPEVKKPGASVKVSCTASGYTFTSYGVSWVRQAPGQGLEWIGWISAHNGQTKYAEKFQGRVTMTRNTSISTAYMELSSLRSEDTAVYYCARDGSYDILTGYYIDNYMDVWGKGTMVTVSSGGGGSGGGGSGGGGSSELTQDPAVSVALGQTVRITCQGDSLRSYYTNWFQQKPGQAPLLVVYAKNKRPSGIPDRFSGSSSGNTASLTITGAQAEDEADYYCHSRDSSGNHVLFGGGTKLTVLG | binds |
| I018C10 (scFv) scFv: GVQLVQSGPEVKKPGASVKVSCTASGYTFTSYGVSWVRQAPGQGLEWIGWISAHNGQTKYAEKFQGRVTMTRNTSISTAYMELSSLRSEDTVVYYCARDGSYDILTGYYIDNYMDVWGKGTMVTVSSGGGGSGGGGSGGGGSSELTQDPAVSVALGQTVRITCQGDSLRSYYTNWFQQKPGQAPLLVVYAKNKRPSGIPDRFSGSSSGNTASLTITGAQAEDEADYYCHSRDSSGNHVLFGGGTKLTVLG | binds |
| I018D07 (scFv) scFv: GVQLVQSGPEVKKPGASVIVSCTASGYTFTSYGVSWVRQAPGQGLEWIGWISAHNGQTKYAEKFQGRVTMTRNTSISTAYMELSSLRSEDTAVYYCARDGSYDILTGYYIDNYMDVWGKGTMVTVSSGGGGSGGGGSGGGGSSELTQDPAVSVALGQTVRITCQGDSLRSYYTNWFQQKPGQAPLLVVYAKNKRPSGIPDRFSGSSSGNTASLTITGAQAEDEADYYCHSRDSSGNHVLFGGGTKLTVLG | binds |
| I016F02 (scFv) scFv: GVQLVESGAEVKKPGASVKVSCRTSGYTFTSNSFSWVRQAPGQGLEWMGGIIPIFGTANYAQKLQGRVTITADELTRTVYMDLSSLRSEDTAVYYCATGMGDHYGMDVWGRGTLVTVSSGGGGSGGGGSGGGGSQSVLTQPASVSGSPGQSITISCTGTSSDVGGYNYVSWYQQHPGKAPKLMIYEGSKRPSGVSNRFSGSKSGNTASLTISGLQAEDEADYYCSSYTTRSTRVFGGGTKLTVLG | binds |
| I029F11 (scFv) scFv: QVQLVQSRAEVKRPGASVKVSCKASGYRFGSYGITWVRQAPGQGLEWMGWISTRYGDTKSAQKVEGRVTLTTDTSTSTAYMELRSLRSDDTAVYYCARDGSYDILTGYYIDNYMDVWGRGTLVTVSSGGGGSGGGGSGGGGSQSVLTQPPSASGTPGQRVTISCSGSSSNIGSNTVNWYQRLPGAAPQLLIYNNDQRPSGIPDRFSGSKSGTSGSLVISGLQSEDEADYYCASWDDSLNGRVFGGGTKLTVLG | binds |
| I021B05 (scFv) scFv: QVQQSGADVKKPGGSLRLSCAASGFTFSSYSMNWVRQAPGKGLEWVSSISSSSSYIYYADSVKGRFTISRDNAKNSLYLQMNSLRAEDTAVYYCAREGGNYDILTGYYIGNGAFDIWGRGTMVTVSSGGGGSGGGGSGGGGSQSVLTQPASVSGSPGQSITISCTGTSSDVGGYNYVSWYQQHPGKAPKLMIYEGSKRPSGVSNRFSGSKSGNTASLTISGLQAEDEADYYCSSYTTRSTRVFGGGTKLTVLG | binds |
| I016E05 (scFv) scFv: QVQLQQSGAEVKKPGASVKVSCKASGYTFTKYTMHWVRQAPGQGPEWMGWINGGSGDTKYSRKFQGRVTITKDTSASAAYMELSSLGSEDTALYYCARATYDPLTGYSFDGFDIWGKGTMVTVSSGGGGSGGGGSGGGGSQSALTQPASVSGSPGQSITISCTGTSSDVGGYNYVSWYQQHPGKAPKLMIYEGSKRPSGVSNRFSGSKSGNTASLTISGLQAEDEADYYCSSYTTRSTRVFGGGTKLTVLG | binds |
| I018H08 (scFv, also called 1018H08) scFv: QVQLQQSGAEVKKPGASVNVSCKASGYTFTKYTMHWVRQAPGQGPEWMGWINGGSGDTKYSRKFQGRVTITKDTSASAAYMELSSLGSEDTALYYCARATYDPLTGYSFDGFDIWGQGTMVTVSSGGGGSGGGGSGGGGSQSVLTQPASVSGSPGQSITISCTGTSSDVGGYNYVSWYQQHPGKAPKLMIYEGSKRPSGVSNRFSGSKSGNTASLTISGLQAEDEADYYCSSYTTRSTRVFGGGTKLTILG | binds |
| I018H09 (scFv) scFv: QVQLQQSGAEVKKPGASVKVSCKASGYTFTKYTMHWVRQAPGQGPEWMGWINGGSGDTKYSRKFQGRVTITKDTSASATYMELSSLGSEDTALYYCARATYDPLTGYSFDGFDIWGKGTMVTVSSGGGGSGGGGSGGGGSQSVLTQPASVSGSPGQSITISCTGTSSDVGGYNYVSWYQQHPGKAPKLMIYEGSKRPSGVSNRFSGSKSGNTASLTISGLQAEDEADYYCSSYTTRSTRVFGGGTKLTVLG | binds |
| I016H07 (scFv) scFv: GVQLVQSGAEVKKPGASVKVSCKASGYTFTHYAINWLRQAPGQRPEWMGTINTGNGNTKYSQNFQGRLTITRDTSASTVNMELSSLRSEDTAVYYCAGGYHDPLTSYNYNWFDPWGQGTMVTVSSGGGGSGGGGSGGGGSSELTQDPAVSVALGQTVRITCQGDSLRSYYTNWFQQKPGQAPLLVVYAKNKRPSGIPDRFSGSSSGNTASLTITGAQAEDEADYYCHSRDSSGNHVLFGGGTKLTVLG | binds |
| I051C04 (scFv, also called 1051C04) scFv: QVQLQQSGAEVKKPGSSVKVSCRTSGGTFSNYGLSWVRQAPGQGLEWMGGVIPISSTIKYGQKFQDRLTIAADDLTNTTFMELSSLRPEDTAVYYCARAATTSQKHNKYAYYFYGMDVWGQGTMVTVSSGGGGSGGGGSGGGGSAQSALTQPASVSGSPGQSITISCTGTSSDVGGYNYVSWYQQHPGKAPKLMIYEVSNRPSGVSNRFSGSKSGNTASLTISGLQAEDEADYYCSSYTSSSTLVFGGGTKVTVLG | binds |
